This note sets out measurements from US20180185504A1 (Regeneron, published 2018).

The target in assay [1] is T1, mouse PRLR with an HA tag on HEK293 cells (mouse, UniProt Q08501 20-608).
T1 construct: whole, on cells; also called HEK293/mPRLR; rodent PRLR; not shown: HA tag
T1 sequence (looked up): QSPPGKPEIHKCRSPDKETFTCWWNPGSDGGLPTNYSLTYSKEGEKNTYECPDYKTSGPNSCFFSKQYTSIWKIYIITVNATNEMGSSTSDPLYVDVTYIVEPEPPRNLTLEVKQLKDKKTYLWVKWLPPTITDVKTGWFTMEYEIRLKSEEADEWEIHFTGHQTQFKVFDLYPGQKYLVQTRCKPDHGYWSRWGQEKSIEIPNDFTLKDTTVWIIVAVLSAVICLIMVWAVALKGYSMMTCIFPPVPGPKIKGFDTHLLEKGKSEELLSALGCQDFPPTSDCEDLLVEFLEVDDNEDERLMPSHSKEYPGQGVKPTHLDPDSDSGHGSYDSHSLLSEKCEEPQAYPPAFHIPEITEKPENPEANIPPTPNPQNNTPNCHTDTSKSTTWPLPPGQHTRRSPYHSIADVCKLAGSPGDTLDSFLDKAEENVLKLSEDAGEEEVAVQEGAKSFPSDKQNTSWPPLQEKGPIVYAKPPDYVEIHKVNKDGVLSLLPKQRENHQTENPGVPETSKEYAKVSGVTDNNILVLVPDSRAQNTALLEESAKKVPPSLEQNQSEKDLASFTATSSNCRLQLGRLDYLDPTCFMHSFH
The experiment in a line: FACS on HEK293/mPRLR cells.

For assay [2], the target named is T2, human PRLR on cells (endogenous on T47D, T47D#11, MCF7); introduced in HEK293/hPRLR/STAT5-Luc, 293/hPRLR, … (human, UniProt P16471 25-622).
T2 construct: no tag is stated for these lines; also called prolactin receptor
T2 sequence: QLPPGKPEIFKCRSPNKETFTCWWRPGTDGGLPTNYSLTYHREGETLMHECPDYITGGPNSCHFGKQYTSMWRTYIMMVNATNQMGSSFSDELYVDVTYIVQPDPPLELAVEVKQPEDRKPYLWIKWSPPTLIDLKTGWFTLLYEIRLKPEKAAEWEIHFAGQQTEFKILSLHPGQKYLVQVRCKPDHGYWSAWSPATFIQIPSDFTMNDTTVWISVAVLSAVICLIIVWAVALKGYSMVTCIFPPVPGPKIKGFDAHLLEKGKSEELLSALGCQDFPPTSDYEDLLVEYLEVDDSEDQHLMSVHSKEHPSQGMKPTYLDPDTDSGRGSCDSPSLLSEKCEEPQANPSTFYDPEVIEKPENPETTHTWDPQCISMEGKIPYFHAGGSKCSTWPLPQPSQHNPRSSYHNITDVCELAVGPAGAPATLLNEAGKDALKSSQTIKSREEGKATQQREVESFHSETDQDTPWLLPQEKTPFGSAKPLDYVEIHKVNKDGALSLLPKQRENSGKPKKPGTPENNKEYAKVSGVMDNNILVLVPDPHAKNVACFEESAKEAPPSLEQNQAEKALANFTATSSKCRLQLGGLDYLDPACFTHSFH
Nature of the assay: FACS on T47D cells.

Assay [3] concerns the target T2, human PRLR on cells (endogenous on …). Nature of the assay: cell-based or functional assay.
For assay [4] the target is unchanged. The experiment in a line: cell-based or functional assay. The source holds these as a separate data set.
The target in assay [5] is T3, human PRLR construct with an HA tag on HEK293/hPRLR cells (human, UniProt P16471 25-622).
T3 sequence: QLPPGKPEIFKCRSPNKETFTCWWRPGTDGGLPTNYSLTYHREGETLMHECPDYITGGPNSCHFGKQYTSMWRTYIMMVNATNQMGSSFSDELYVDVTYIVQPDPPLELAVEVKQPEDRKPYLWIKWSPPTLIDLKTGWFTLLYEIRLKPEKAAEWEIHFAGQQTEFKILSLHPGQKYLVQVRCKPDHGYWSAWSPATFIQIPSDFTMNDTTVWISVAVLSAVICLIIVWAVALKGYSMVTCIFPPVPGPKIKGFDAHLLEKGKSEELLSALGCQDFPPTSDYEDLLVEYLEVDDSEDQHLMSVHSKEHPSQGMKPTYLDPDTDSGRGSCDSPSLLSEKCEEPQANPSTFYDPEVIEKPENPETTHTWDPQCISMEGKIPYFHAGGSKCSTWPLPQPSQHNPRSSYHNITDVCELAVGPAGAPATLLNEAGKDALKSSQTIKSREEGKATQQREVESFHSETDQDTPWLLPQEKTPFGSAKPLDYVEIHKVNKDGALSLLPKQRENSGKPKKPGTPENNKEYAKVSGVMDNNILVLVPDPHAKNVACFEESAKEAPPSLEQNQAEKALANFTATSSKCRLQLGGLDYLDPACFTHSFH
Nature of the assay: FACS on HEK293/hPRLR cells.

Assay [6] deals with T4, monkey macaca fascicularis PRLR construct with an HA tag on HEK293/mfPRLR cells (macaca fascicularis, UniProt A0A2K5WXK1 25-619).
T4 construct: stably transfected into HEK293
T4 sequence: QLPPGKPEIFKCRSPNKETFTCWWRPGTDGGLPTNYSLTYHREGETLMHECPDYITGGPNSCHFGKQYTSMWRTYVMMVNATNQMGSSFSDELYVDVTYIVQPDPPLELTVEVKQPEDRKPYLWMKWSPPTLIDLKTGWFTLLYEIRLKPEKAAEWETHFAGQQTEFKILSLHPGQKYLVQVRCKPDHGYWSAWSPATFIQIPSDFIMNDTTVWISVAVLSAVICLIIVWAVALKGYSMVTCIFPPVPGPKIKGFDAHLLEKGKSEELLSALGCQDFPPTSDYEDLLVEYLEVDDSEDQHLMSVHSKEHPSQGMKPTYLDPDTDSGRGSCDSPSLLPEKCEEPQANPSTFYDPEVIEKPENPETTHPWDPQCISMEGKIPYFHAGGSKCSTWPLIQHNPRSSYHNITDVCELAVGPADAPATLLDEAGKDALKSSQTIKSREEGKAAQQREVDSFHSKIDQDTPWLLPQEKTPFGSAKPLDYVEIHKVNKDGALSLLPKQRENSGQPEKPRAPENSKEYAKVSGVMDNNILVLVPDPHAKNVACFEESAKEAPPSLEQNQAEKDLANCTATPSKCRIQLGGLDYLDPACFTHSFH
The experiment in a line: FACS on HEK293/mfPRLR cells.

In assay [7] the target is T5, hPRLR.mmh (soluble monomeric human PRLR) (human).
T5 construct: soluble monomeric PRLR protein
T5 chain: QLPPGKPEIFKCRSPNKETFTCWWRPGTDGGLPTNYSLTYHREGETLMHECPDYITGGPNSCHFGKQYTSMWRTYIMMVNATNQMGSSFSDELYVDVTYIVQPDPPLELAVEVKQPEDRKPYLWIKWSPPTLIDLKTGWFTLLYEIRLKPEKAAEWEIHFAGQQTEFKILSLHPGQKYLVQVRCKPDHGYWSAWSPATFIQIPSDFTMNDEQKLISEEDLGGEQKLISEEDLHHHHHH
The experiment in a line: SPR (Biacore), antibody capture, 37 C. The procedure: (§1) Measurements were conducted on a T200 Biacore instrument. Kinetic association (kₐ) and dissociation (kd) rate constants were determined by processing and fitting the data to a 1:1 binding model using Scrubber 2.0 curve fitting software.
A general note: In SPR one partner is held on a chip, and binding of the other changes the refractive index at the surface.

Assay [8] addresses T6, hPRLR.mFc (soluble dimeric human PRLR) (human).
T6 construct: dimeric PRLR construct
T6 chain: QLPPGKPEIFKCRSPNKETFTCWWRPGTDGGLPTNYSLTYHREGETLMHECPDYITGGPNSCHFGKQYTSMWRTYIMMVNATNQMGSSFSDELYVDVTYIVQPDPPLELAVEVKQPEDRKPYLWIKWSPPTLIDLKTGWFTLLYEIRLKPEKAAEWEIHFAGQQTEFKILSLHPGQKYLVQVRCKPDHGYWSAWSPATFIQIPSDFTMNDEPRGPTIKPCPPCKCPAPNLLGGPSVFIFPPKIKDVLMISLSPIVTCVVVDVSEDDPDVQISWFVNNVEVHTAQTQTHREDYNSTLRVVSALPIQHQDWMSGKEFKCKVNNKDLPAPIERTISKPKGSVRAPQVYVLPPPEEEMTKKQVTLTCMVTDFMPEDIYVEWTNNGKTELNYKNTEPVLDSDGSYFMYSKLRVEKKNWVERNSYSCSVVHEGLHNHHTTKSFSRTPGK
The experiment in a line: SPR (Biacore), antibody capture, 37 C. The procedure: as §1

In assay [9] the target is T7, mfPRLR.mmh (soluble monomeric macaca fascicularis PRLR) (macaca fascicularis).
T7 construct: soluble monomeric PRLR protein; also called macaca fascicularis (mf) PRLR.mmh; monkey PRLR
T7 chain: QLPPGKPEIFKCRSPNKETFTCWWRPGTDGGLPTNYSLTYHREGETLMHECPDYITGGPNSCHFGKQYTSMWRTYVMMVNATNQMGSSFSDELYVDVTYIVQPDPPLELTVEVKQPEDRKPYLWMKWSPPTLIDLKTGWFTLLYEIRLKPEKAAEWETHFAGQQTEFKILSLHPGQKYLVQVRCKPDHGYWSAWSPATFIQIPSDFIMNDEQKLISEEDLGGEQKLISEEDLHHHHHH
The experiment in a line: SPR (Biacore), antibody capture, 37 C. The protocol: as §1

Assay [10] has as its target T2, human PRLR on cells (endogenous on …). The experiment in a line: imaging of alexa488 intensity on T47D cells. The protocol: Briefly, 20,000 T47D cells were seeded in collagen coated 96 well plates. […] Cells were then incubated with alexa488 conjugated anti-hFc Fab secondary antibodies for 30 minutes on ice followed by two additional PBS washes. Antibodies were allowed to internalize for 1 h at 37° C. in internalization buffer (PBS+2% FBS) or remained at 4° C. Cells were fixed in 4% formaldehyde, nuclei were stained with DRAQ5 (Cell signaling), and images were acquired on the ImageXpress micro XL (Molecular Devices). Whole cell alexa488 intensity at 37° C. (Binding) and the alexa488 intensity in the intracellular vesicles at 37° C. (Internalization) were determined via Columbus image analysis software (PerkinElmer).

In general, Kd refers to the equilibrium constant for the complex coming apart. As a reminder, the koff is the first-order rate constant of dissociation. Usually kon stands for the second-order rate constant of association.

B1: H1H6793P (antibody, human IgG1, V domains shown)
VH: EVQLVESGGGLVQPGGSLRLSCAASGFSFSIYAMSWFRQAPGKGLEWVSAINGRGDGTHYADSVKGRFTISRDNSKTTLYLQMSSLRAEDTAVYYCAKPVMSTNGFDIWGQGTMVTVSS
VL: DIQMTQSPSTLSASVGDRVTITCRASQSISSWLAWYQLKPGKAPKLLIYKASNLESGVPSRFSGSGSGTEFTLTISSLQPDDFATYYCQQYNIYWTFGQGTKVEIK
Regarding B1, in assay [1], the binding result is given as “no binding”.

B2: H1H6797P (antibody, human IgG1, V domains shown)
VH: EVQLVESGGGLVQPGGSLRLSCIVSGFTFSGSWMSWVRQLPGKGLEWVANIKEDGSDSYYVDSVEGRFTISRDNAKSSLYLQMNSLRVDDTAVYFCARARTVPLHYWGQGTLVTVSS
VL: DIQMTQSPSTLSASVGDRVTITCRASQSINIWLAWYQQKPGKAPKLLIYRASYLESGVPSSFAGGGSGTEFTLTISSLQPDDFGTYYCQHYNSYPFTFGQGTKLEIK
With B2, in assay [1], the binding result was “no binding”.

B3: H1H6795P (antibody, human IgG1, V domains shown)
VH: QVQLVQSGAEVKKPGASVKVSCKASGYTFGTSGITWVRQAPGQGLEWMGWSSAYNGKTDYAQKFQDRVTMTTDTSTTTGYMEMRSLTSDDTAVYYCTTVVRRPFDFWGQGTLVTVSS
VL: DIQMTQSPSSLSASVGDRVTITCRASQDINNFLAWFQQKPGKAPKSLIYAASSLQSGVPSKFSGGGSGTDFALTISSLQPEDFATYYCQQYSSYPITFGQGTRLEIK
In the case of B3, the binding result in assay [1] is given as “no binding”.

B4: H1H6801P (antibody, human IgG1, V domains shown)
VH: QVQLQQSGPGLVKPSQTLSLTCVISGDSVSSNTAWNWVRQSPSRGLEWLGRTYYRSKWYNDYAVSVKSRITINPDTSKNQFSLLMNSVTPEDTAVYYCARVVRGLNYFDYWGQGTLVTVSS
VL: DIVMTQSPDSLAVSLGERATINCKSSQSVLYNSNNKNYLAWYQQKPGQPPKLLIYWSSSRESGVPDRFSGSGSGTDFTLTISGLQAEDVAIYYCQQYSTIPYTFGQGTKLEIK
notes: human IgG1 Fc (H1H)
Take B4: the “FACS Cell Binding (Fold Above Background)” value in assay [2] amounted to 45 fold. In addition, the “% Internalization relative to Control I (T47D cells, imaging)” value in assay [3] came to 149%. For the same molecule, in assay [4], the “IC50 of Blocking 5 nM PRL [M] (STAT5-Luc reporter, HEK293/hPRLR/STAT5-Luc cells)” value was determined as 1.4e-10 M and the “Percent Blocking at 100 nM Antibody (STAT5-Luc reporter)” value was 100%. Moreover, in [5], the “FACS Cell Binding (Fold Above Background)” value stood at 47 fold. For the same molecule, the “FACS Cell Binding (Fold Above Background)” value in assay [6] is 88 fold. In assay [7], the Kd stood at 4.63 nM, the “T 1/2” value came to 3 min, the koff stood at 0.00441 s⁻¹ and the kon stood at 951000 M⁻¹ s⁻¹. In addition, in [8], binding was put at a Kd of 0.279 nM, the “T 1/2” value was 52 min, the koff was 0.000221 s⁻¹ and the kon is 793000 M⁻¹ s⁻¹. In [9], the dissociation constant (Kd) is 10.8 nM, the “T 1/2” value was determined as 1 min, the koff stood at 0.00771 s⁻¹ and the kon is 711000 M⁻¹ s⁻¹. Further, in [10], the “% Total Binding relative to Control I” value was determined as 156%.

B5: H1H6803P (antibody, human IgG1, V domains shown)
VH: EVQLVESGGGVVRPGGSLRLSCAASGFKFDDYGMTWVRHVPGKGLEWVSGINWNGGRTGYTDSVKGRFTISRDNAKNSLYLQMNSLRAEDTALYHCAGARRDAFDIWGQGTMVTVSS
VL: DIQMTQSPSSLSASIGDRVTITCRASQNIIKYLNWYQQNAGKAPKLLIYTASSLQSGVPSRFSGSGSGTDFTLTISSLQPEDFATYYCQQSSSSPYTFGQGTKLEIK
Regarding B5, the binding result in assay [1] is “no binding”.

B6: H1H6800P (antibody, human IgG1, V domains shown)
VH: EVQLVESGGGLVQPGRSLRLSCAASGFTFDGYAMHWVRQGPGKGLEWVSGISWYSDTLGYADSVKGRFTISRDNAKNSLYLQMNSLRTEDTAFYYCAKISSSGWAFDYWGQGTLVTVSS
VL: EIVLTQSPGTLSLSPGERATLSCRASHSVSSAYLAWYQQKPGQTPRLLIYGTSSRATGIPDRFSGSGSGTDFTLTISRLEPEDFAVYYCQQYGSSPLFTFGPGTKVDIK
Consider B6, for which the binding result in [1] was “no binding”.
